Laboratory results taken from US20200297760A1 (JUNO THERAPEUTICS, published 2020).
No end group written: not given here.

B1: FIIFWVKRG (peptide)
peptide: FIIFWVKRG
notes: synthetic 9-mer of the CD28-4-1BB junction; mutation: none
B2: FIIFWVLRG (peptide)
peptide: FIIFWVLRG
notes: synthetic 9-mer variant; the entry already carries the change
B3: FIIFWVSRG (peptide)
peptide: FIIFWVSRG
notes: as for B2
B4: FIIFWVQRG (peptide)
peptide: FIIFWVQRG
notes: as for B2
B5: WVKRGRKKL (peptide)
peptide: WVKRGRKKL
notes: as for B1
B6: WVQRGSKKL (peptide)
peptide: WVQRGSKKL
notes: synthetic 9-mer variant; the entry already carries the changes
B7: WVLRGRKKL (peptide)
peptide: WVLRGRKKL
notes: as for B2
B8: WVHRGRKKL (peptide)
peptide: WVHRGRKKL
notes: as for B2
B9: WVKRGLKKL (peptide)
peptide: WVKRGLKKL
notes: as for B2
B10: WVKRGRKKS (peptide)
peptide: WVKRGRKKS
notes: as for B2
B11: WVSRGRKKL (peptide)
peptide: WVSRGRKKL
notes: as for B2
B12: WVQRGAKKL (peptide)
peptide: WVQRGAKKL
notes: as for B6
B13: FWVKRGHKK (peptide)
peptide: FWVKRGHKK
notes: as for B2
B14: FWVSRGRKK (peptide)
peptide: FWVSRGRKK
notes: as for B2
B15: FWVLRGRKK (peptide)
peptide: FWVLRGRKK
notes: as for B2
B16: FWVQRGSKK (peptide)
peptide: FWVQRGSKK
notes: as for B6
B17: FWVQRGNKK (peptide)
peptide: FWVQRGNKK
notes: as for B6
B18: FWVKRGSKK (peptide)
peptide: FWVKRGSKK
notes: as for B2
B19: FWVQRGRKK (peptide)
peptide: FWVQRGRKK
notes: as for B2
B20: FWVQRGAKK (peptide)
peptide: FWVQRGAKK
notes: as for B6
B21: VAFIIFWVA (peptide)
peptide: VAFIIFWVA
notes: as for B2
B22: VAFIIFWVQ (peptide)
peptide: VAFIIFWVQ
notes: as for B2
B23: VAFIIFWVL (peptide)
peptide: VAFIIFWVL
notes: as for B2
B24: VAFIIFWVH (peptide)
peptide: VAFIIFWVH
notes: as for B2
B25: Synthetic peptide WVKRGRKKA (L34A) (peptide)
peptide: WVKRGRKKA
notes: Synthetic 9-mer variant of the CD28 transmembrane / 4-1BB costimulatory junction region
B26: AFIIFWVRR synthetic peptide K28R (SEQ ID NO: 101) (peptide)
peptide: AFIIFWVRR
notes: Synthetic 9-mer from the CD28/4-1BB junction region
B27: WVKRGRKKA synthetic peptide L34A (SEQ ID NO: 90) (peptide)
peptide: WVKRGRKKA
notes: Synthetic 9-mer from the CD28 transmembrane / 4-1BB costimulatory junction region of a CAR
B28: AFIIFWVKR (peptide)
peptide: AFIIFWVKR
notes: as for B1
B29: AFIIFWVQR (peptide)
peptide: AFIIFWVQR
notes: as for B2
B30: AFIIFWVLR (peptide)
peptide: AFIIFWVLR
notes: as for B2
B31: WVQRGNKKS synthetic peptide K28Q/L34S (SEQ ID NO: 91) (peptide)
peptide: WVQRGNKKS
modifications: not fully specified
notes: as for B26
B32: WVQRGNKKA synthetic peptide K28Q/L34A (SEQ ID NO: 92) (peptide)
peptide: WVQRGNKKA
modifications: not fully specified
notes: as for B26

Tests used:
[1] = target: T1, HLA-A*03:01 (human); experiment: REVEAL MHC-peptide binding assay, recombinant HLA
T1 construct: recombinant MHC class I molecule incubated with the synthetic peptide (REVEAL, ProImmune)
Experimental: (§1) Specifically, assessment was of a series of overlapping 9-mer peptides derived from the sequence […] (set forth in SEQ ID NO: 7), which contains a portion of the CD28 transmembrane domain and 4-1BB costimulatory domain spanning the junction between the domains (bond joining the two amino acids noted in underline). In addition, a series of overlapping 9-mer peptides of each of a number of different variants of this portion also were assessed, each variant containing a mutation or mutations in this region as described in Example 2.
(§2) The various 9-mer overlapping peptides were synthesized and their purity tested by MALDI-TOF Mass Spectrometry.

[2] = target: T2, HLA-A*02:01 (human); experiment: REVEAL MHC-peptide binding assay, recombinant HLA
T2 construct: recombinant MHC class I molecule incubated with the synthetic peptide (REVEAL, ProImmune)
Experimental: as §1, §2

[3] = target: T3, HLA-A*02:01 (recombinant MHC class I molecule) (human); experiment: REVEAL MHC-peptide binding assay, recombinant MHC, score normalised to positive control = 100
T3 construct: Recombinant MHC used in the ProImmune REVEAL assay; also called HLA-A2:01
Experimental: as §1, §2

[4] = target: T4, HLA-A*03:01 (recombinant MHC class I molecule) (human); experiment: as above
T4 construct: Recombinant MHC used in the ProImmune REVEAL assay
Experimental: as §1, §2

[5] = target: T5, HLA-A*11:01 (recombinant MHC class I molecule) (human); experiment: REVEAL MHC-peptide binding assay, stabilisation of ternary complex with recombinant MHC
T5 construct: Recombinant MHC molecule of the ProImmune REVEAL assay
Experimental: as §1, §2

[6] = target: T6, HLA-B*08:01 (recombinant MHC class I molecule) (human); experiment: as above
T6 construct: Recombinant MHC molecule of the ProImmune REVEAL assay
Experimental: as §1, §2

Binder | In Vitro Score [1] | In Vitro Score [2] | other results
B1 | 1.4 % of positive control peptide | 10.1 % of positive control peptide | 
B2 | 0.1 % of positive control peptide | 7.2 % of positive control peptide | 
B3 | 0.1 % of positive control peptide | 0.2 % of positive control peptide | 
B4 | 0.4 % of positive control peptide | 16.8 % of positive control peptide | 
B5 | 13.1 % of positive control peptide | 1.4 % of positive control peptide | 
B6 | 1.2 % of positive control peptide | 4.4 % of positive control peptide | 
B7 | 0.7 % of positive control peptide | 2.4 % of positive control peptide | 
B8 | 3.4 % of positive control peptide | 1.6 % of positive control peptide | 
B9 | 10 % of positive control peptide | 24.5 % of positive control peptide | 
B10 | 0.9 % of positive control peptide | 3.9 % of positive control peptide | 
B11 | 2.1 % of positive control peptide | 2.3 % of positive control peptide | 
B12 | 2 % of positive control peptide | 3 % of positive control peptide | 
AFIIFWVRR (Synthetic 9-mer junction variant) [Synthetic peptide AFIIFWVRR (K28R)] |  |  | In Vitro Score [3]: 1.4 % of positive control peptide
B13 | 4.1 % of positive control peptide | 2.6 % of positive control peptide | 
B14 | 2.9 % of positive control peptide | 1.5 % of positive control peptide | 
B15 | 0.4 % of positive control peptide | 3.3 % of positive control peptide | 
B16 | 1.9 % of positive control peptide | 0.8 % of positive control peptide | 
B17 | 1.3 % of positive control peptide | 3.1 % of positive control peptide | 

Binder | In Vitro Score [1] | In Vitro Score [2] | other results
B18 | 5.9 % of positive control peptide | 1.9 % of positive control peptide | 
B19 | 6.4 % of positive control peptide | 5.2 % of positive control peptide | 
B20 | 2.7 % of positive control peptide | 2.2 % of positive control peptide | 
WVQRGNKKS (not fully specified, Synthetic 9-mer junction variant) [Synthetic peptide WVQRGNKKS (K28Q/L34S as labelled)] |  |  | In Vitro Score [3]: 1.2 % of positive control peptide; In Vitro Score [4]: 0.7 % of positive control peptide
WVQRGNKKA (not fully specified, Synthetic 9-mer junction variant) [Synthetic peptide WVQRGNKKA (K28Q/L34A as labelled)] |  |  | In Vitro Score [3]: 1.9 % of positive control peptide; In Vitro Score [4]: 1.2 % of positive control peptide
B21 | 0 % of positive control peptide | 28.5 % of positive control peptide | 
B22 | 0.2 % of positive control peptide | 5.3 % of positive control peptide | 
B23 | 0 % of positive control peptide | 0.2 % of positive control peptide | 
B24 | 0.3 % of positive control peptide | 3.1 % of positive control peptide | 
B25 |  |  | In Vitro Score [3]: 4.5 % of positive control peptide; In Vitro Score [4]: 0.9 % of positive control peptide
B26 |  |  | In Vitro Score [5]: 1.5 % of positive control peptide; In Vitro Score [6]: 0.3 % of positive control peptide
B27 |  |  | In Vitro Score [5]: 3.1 % of positive control peptide; In Vitro Score [6]: 3.1 % of positive control peptide
B28 | 5.7 % of positive control peptide | 0.5 % of positive control peptide | 
B29 | 0.2 % of positive control peptide | 0.4 % of positive control peptide | 
B30 | 0.3 % of positive control peptide | 5.7 % of positive control peptide | 
B31 |  |  | In Vitro Score [5]: 5 % of positive control peptide; In Vitro Score [6]: 0 % of positive control peptide
B32 |  |  | In Vitro Score [5]: 0.8 % of positive control peptide; In Vitro Score [6]: 0.7 % of positive control peptide
